Test results taken from patent US20160002338A1 (Hoffmann-La Roche, published 2016).

Tests used:
HER4 ECD-HRG complex = biological target: T1, HER4 ECD-HRG complex (human, UniProt Q15303 26-651); test: SPR Biacore 3000, 37 C
T1 construct: HER4 ECD preincubated with a 5-fold molar excess of Heregulin; also called HER-4-ECD-RG
T1 sequence 1: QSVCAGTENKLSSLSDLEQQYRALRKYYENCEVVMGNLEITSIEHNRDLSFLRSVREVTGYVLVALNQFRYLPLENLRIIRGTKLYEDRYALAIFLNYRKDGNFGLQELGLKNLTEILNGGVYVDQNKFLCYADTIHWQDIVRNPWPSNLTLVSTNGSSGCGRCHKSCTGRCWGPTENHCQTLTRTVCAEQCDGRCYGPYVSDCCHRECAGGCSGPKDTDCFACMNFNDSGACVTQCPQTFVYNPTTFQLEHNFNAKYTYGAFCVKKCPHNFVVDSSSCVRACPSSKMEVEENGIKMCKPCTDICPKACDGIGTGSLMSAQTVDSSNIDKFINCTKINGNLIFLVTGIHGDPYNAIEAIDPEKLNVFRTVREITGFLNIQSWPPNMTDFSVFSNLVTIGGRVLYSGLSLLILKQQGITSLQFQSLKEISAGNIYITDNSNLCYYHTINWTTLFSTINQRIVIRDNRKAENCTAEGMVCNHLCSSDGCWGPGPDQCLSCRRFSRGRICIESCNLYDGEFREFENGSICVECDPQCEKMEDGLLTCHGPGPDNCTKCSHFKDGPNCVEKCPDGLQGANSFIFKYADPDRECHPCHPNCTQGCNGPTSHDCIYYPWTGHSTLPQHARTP
T1 sequence 2: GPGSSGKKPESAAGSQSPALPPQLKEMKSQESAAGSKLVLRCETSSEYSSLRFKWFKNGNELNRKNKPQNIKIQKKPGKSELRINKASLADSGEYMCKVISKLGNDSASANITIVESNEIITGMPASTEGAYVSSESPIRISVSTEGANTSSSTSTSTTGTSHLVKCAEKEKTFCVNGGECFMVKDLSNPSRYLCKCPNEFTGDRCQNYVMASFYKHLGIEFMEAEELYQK

[1] = biological target: T2, human recombinant HER3 ECD (human, UniProt P21860 20-643); test: SPR Biacore 3000, 37 C
T2 construct: 68 kDa; also called human-Her3-ECD; full length Her3 ECD

HER3 ECD-HRG complex = biological target: T3, HER3 ECD-HRG complex (human, UniProt P21860 20-643); test: SPR Biacore 3000, 37 C
T3 construct: also called Heregulin/Her-3 ECD

[2] = biological target: T4, HER4 ECD peptide hairpin, overlapping 15-mer peptides (human); test: CelluSpots peptide array
T4 construct: also called β-hairpin of HER4
T4 peptide: PQTFVYNPTTFQLEHNFNA

[3] = biological target: human HER3 (full length, on cells) (human, UniProt P21860 20-1342); test: cell-based or functional assay

B1: humanized variant VH-A/VL-D of anti-HER3 antibody M-05-74 (antibody, V domains shown)
VH: QVQLVQSGAELKKPGASVKVSCRTSGYTLTDYWIHWVRQAPGQGLEWMGYINPYTGYTESNQKFKDRVAMTRDASINTAYMELTSLRSDDTAVYYCARPYYYGDYWGQGTLVTVSS
VL: EIVLTQSPATLSLSPGERATLSCSASSSVSYMHWFQQKPGQPPRLLIYSTSNLASGIPARFSGSGSGTDFTLTISSLEPEDFAVYYCQQRSSYPFTFGGGTKVEIK
notes: also called humanized DIB-74
B1 was tested, and the “Molar Ratio MR” value (HER4 ECD-HRG complex) was 0.8, the “Molar Ratio MR” value [1] was 0.7 and the “Molar Ratio MR” value (HER3 ECD-HRG complex) was 0.8.

B2: anti-HER3 antibody M-08-11 (antibody, V domains shown)
VH: QAYLQQSGAELMRPGASVRMSCQASGYTFTSYTIHWLKQTPRQGLEWIGAIYPRNGDFSYNQKFKDKASLTVDTSSSTAYMHLSSLTSEDSAVYFCARTINYGDWFAYWGQGTLVTVSA
VL: DIQMIQSPASLFVSEGETVIITCRASENIYSNLAWYHQKKGKSPQVLVYAAIKLADGVPLRFSGSGSGTQFSLKINSLQSEDFGSYYCQHFWGPPYTFGSGTNLEIK
notes: also called M-011; <Her3> M-08-11
B2: no binding (tested: 1 µg/mL) [2].

B3: M-05-74-Fab-Pseudomonas exotoxin conjugate (M-05-74-PE) (other)
light: QIVLTQSPAIMSASPGERVTITCSASSSVSYMHWFQQKPGTSPKLLIYSTSNLASGVPARFSGSGSGTSYSLTISRMEAEDAATYYCQQRSSYPFTFGSGTKLEIKRTVAAPSVFIFPPSDEQLKSGTASVVCLLNNFYPREAKVQWKVDNALQSGNSQESVTEQDSKDSTYSLSSTLTLSKADYEKHKVYACEVTHQGLSSPVTKSFNRGEC
heavy: QVQLQQSGAELAKPGASVKMSCKTSGYTLTDYWIHWVKQRPGQGLEWIGYINPYTGYTESNQKFKDKATLTADKSSNTAYIQLSSLTSEDSAVYYCARPYYYGDYWGQGTTLTVSSASTKGPSVFPLAPSSKSTSGGTAALGCLVKDYFPEPVTVSWNSGALTSGVHTFPAVLQSSGLYSLSSVVTVPSSSLGTQTYICNVNHKPSNTKVDKKVEPKSCGGGSLPETGGGRHRQPRGWEQLYPTGAEFLGDGGAVSFSTRGTQNWTVERLLQAHRQLEEGGYVFVGYHGTFLEAAQSIVFGGVRARSQDLDAIWAGFYIAGDPALAYGYAQDQEPDAAGRIRNGALLRVYVPRSSLPGFYATSLTLAAPEAAGEVERLIGHPLPLRLDAITGPEESGGRLETILGWPLAERTVVIPSAIPTDPRNVGGDLDPSSIPDSEAAISALPDYASQPGKPPREDL
For B3, the “EC50 of cell killing of A549 cells, +HRG beta” value [3] was 0.13 µg/mL and the “EC50 of cell killing of A549 cells, -HRG beta” value [3] was 1.93 µg/mL.
